What was measured:
[1] = molecular target: T1, rat (Rattus norvegicus) PCSK9, myc-myc-his tagged (rat (Rattus norvegicus), UniProt P59996 31-691); assay: SPR, mAb amine-coupled, 37C, pH 7.4
T1 construct: also called rPCSK9-mmh; rPCSK9
Description: (§1) Briefly, mAbs were immobilized onto BIACORE™ CM5 sensor chips via amine coupling.

[2] = molecular target: T2, his-tagged Syrian golden hamster (Mesocricetus auratus) PCSK9 (Syrian golden hamster (Mesocricetus …)); assay: SPR, mAb amine-coupled, 37C, pH 7.4
T2 construct: also called maPCSK9-h; maPCSK9
T2 chain: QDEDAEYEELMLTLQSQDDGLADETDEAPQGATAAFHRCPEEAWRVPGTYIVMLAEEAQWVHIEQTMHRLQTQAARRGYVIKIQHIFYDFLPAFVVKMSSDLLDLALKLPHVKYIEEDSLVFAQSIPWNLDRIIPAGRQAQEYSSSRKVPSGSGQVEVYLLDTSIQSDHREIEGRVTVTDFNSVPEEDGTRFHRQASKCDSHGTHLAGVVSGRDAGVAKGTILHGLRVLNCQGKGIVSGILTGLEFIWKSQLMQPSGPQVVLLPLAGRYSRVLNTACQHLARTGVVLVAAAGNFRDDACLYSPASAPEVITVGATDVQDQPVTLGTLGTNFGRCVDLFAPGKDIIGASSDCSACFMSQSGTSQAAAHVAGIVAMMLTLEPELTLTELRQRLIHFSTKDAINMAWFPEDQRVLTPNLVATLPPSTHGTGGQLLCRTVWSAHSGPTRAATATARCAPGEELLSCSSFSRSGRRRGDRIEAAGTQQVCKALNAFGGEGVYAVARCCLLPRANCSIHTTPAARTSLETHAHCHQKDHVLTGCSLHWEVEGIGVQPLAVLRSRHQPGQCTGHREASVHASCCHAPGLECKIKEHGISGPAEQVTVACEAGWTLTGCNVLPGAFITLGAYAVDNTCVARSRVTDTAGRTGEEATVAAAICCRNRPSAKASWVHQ
Description: as §1

[3] = molecular target: T3, human PCSK7, myc-myc-his tagged (human, UniProt Q16549 142-667, limits assumed); assay: ELISA, mAb coated
T3 construct: also called hPCSK7-mmh; hPCSK7
T3 sequence: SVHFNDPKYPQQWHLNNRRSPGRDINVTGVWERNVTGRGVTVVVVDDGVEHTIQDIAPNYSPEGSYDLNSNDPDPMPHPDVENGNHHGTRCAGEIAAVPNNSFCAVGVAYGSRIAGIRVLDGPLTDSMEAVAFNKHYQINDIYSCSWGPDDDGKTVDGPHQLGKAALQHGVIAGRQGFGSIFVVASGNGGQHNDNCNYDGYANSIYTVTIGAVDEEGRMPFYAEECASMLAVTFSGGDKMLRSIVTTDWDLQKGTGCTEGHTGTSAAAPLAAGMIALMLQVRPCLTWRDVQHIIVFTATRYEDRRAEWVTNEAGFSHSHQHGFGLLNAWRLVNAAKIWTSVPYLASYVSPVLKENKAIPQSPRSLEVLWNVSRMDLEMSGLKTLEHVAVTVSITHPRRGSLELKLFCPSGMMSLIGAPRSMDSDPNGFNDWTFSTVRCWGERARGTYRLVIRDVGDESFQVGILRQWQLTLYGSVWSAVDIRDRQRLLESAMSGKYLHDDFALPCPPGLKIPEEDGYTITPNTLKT

[4] = molecular target: T4, human PCSK1, myc-myc-his tagged (human, UniProt P29120 111-753, limits assumed); assay: ELISA, mAb coated
T4 construct: also called hPCSK1-mmh; hPCSK1
T4 sequence: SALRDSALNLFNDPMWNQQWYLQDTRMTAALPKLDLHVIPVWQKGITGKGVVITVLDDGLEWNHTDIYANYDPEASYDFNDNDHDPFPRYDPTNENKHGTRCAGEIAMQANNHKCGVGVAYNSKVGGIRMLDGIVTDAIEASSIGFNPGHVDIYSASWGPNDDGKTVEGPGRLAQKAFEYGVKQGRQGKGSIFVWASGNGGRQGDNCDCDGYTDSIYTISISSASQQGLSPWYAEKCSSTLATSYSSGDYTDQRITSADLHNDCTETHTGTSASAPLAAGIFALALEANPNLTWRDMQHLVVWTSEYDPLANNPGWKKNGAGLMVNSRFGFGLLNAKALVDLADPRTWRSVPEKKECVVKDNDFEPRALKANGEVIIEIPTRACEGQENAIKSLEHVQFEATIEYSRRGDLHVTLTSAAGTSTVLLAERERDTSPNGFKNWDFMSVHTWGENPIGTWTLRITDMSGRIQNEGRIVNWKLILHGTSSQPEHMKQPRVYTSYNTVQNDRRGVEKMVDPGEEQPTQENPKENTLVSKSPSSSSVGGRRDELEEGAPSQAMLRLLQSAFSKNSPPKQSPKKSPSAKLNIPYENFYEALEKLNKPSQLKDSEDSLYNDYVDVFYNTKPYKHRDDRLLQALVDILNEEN

[5] = molecular target: T1, rat (Rattus norvegicus) PCSK9, …; assay: SPR, mAb amine-coupled, 25C, pH 5.5
Description: as §1

[6] = molecular target: T5, mouse PCSK9, myc-myc-his tagged (mouse, UniProt Q80W65 35-694); assay: SPR, mAb amine-coupled, 25C, pH 5.5
T5 construct: also called mPCSK9-mmh; mPCSK9
T5 sequence (Q80W65 35-694 limits assumed): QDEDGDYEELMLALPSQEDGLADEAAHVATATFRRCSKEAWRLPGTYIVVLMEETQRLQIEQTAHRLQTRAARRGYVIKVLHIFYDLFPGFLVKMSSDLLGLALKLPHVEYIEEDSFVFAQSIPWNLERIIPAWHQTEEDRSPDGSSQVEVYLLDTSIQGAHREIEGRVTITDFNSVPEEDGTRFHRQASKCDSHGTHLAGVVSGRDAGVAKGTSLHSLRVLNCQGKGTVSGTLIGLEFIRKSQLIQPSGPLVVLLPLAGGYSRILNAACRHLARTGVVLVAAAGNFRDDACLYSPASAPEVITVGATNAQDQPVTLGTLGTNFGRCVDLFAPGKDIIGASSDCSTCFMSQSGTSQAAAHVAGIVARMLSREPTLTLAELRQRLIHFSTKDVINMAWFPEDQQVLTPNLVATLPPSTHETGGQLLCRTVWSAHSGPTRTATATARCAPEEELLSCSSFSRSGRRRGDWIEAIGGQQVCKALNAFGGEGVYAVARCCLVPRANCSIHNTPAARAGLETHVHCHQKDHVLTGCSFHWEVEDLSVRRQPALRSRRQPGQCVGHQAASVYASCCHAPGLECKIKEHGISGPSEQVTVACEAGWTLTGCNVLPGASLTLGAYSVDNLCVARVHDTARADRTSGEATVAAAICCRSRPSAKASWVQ
Description: as §1

[7] = molecular target: T2, his-tagged Syrian golden hamster …; assay: SPR, mAb amine-coupled, 25C, pH 5.5
Description: as §1

[8] = molecular target: T6, tagged rhesus monkey (Macaca mulata) PCSK9 (rhesus monkey (Macaca mulata), UniProt A8T666 31-692); assay: SPR, mAb captured on anti-hFc, 37C
T6 construct: also called mmPCSK9-mmh; mmPCSK9
T6 sequence (A8T666 31-692 limits assumed): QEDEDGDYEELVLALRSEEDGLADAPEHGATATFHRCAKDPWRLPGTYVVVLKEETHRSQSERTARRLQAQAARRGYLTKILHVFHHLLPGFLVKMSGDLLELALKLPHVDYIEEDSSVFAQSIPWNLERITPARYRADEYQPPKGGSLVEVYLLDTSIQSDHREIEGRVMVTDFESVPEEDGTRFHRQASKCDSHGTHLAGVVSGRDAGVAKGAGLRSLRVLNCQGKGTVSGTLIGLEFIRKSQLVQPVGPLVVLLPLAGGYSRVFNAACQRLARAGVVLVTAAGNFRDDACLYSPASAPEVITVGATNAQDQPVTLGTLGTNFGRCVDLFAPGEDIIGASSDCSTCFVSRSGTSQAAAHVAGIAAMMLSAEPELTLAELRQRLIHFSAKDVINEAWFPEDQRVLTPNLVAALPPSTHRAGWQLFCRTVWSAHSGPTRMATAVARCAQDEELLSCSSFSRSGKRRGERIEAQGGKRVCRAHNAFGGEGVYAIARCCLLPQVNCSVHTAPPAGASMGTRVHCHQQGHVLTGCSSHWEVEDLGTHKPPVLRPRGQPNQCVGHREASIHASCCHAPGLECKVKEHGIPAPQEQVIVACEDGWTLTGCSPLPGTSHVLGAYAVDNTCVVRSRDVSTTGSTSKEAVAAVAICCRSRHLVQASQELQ

[9] = molecular target: T1, rat (Rattus norvegicus) PCSK9, …; assay: SPR, mAb captured on anti-hFc, 37C
[10] = molecular target: T2, his-tagged Syrian golden hamster …; assay: SPR, mAb captured on anti-hFc, 37C
hPCSK9(D374Y)-mmh = molecular target: T7, hPCSK9(D374Y)-mmh (human, UniProt Q8NBP7 31-692); assay: SPR, mAb captured on anti-hFc, 37C
T7 construct: also called hPCSK(D374Y)-mmh

T1 sequence (P59996 31-691 limits assumed): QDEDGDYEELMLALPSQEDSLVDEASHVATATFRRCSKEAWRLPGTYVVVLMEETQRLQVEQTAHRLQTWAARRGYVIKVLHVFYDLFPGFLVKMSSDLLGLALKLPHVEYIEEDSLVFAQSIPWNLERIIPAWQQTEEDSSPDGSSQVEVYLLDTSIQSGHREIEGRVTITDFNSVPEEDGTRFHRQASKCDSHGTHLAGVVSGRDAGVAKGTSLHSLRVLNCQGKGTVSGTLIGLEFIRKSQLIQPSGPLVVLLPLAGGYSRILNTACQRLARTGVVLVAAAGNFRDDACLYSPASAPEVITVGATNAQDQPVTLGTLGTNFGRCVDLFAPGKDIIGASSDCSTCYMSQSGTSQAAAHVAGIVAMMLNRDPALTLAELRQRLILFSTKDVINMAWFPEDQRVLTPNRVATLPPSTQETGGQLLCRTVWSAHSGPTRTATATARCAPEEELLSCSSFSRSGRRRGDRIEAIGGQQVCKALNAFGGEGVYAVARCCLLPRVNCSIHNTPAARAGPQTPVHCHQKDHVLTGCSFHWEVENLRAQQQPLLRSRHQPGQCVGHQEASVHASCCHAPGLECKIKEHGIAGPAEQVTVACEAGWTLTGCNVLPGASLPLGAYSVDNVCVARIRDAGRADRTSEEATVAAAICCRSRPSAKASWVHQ

B1: H1H316P (antibody, V domains shown)
VH: EVQLVESGGGLVQPGGSLRLSCAASGFTFNNYAMNWVRQAPGKGLDWVSTISGSGGTTNYADSVKGRFIISRDSSKHTLYLQMNSLRAEDTAVYYCAKDSNWGNFDLWGRGTLVTVSS
VL: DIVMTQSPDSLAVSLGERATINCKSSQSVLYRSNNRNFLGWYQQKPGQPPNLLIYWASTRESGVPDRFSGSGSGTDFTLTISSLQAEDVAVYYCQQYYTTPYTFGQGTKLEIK
notes: Fully human mAb made in CHO cells; also called mAb316P
- Kd [1]: 55.1 nM
- T1/2 [1]: 2 min
- Kd [2]: 21.7 nM
- T1/2 [2]: 2 min
- binding result [3]: no binding (tested: 1.2 nM)
- binding result [4]: no binding (tested: 1.2 nM)
- Kd [5]: 0.349 nM
- T1/2 [5]: 5 min
- Kd [6]: 0.063 nM
- T1/2 [6]: 11 min
- Kd [7]: 0.087 nM
- T1/2 [7]: 8 min
- Kd [8]: 1.8 nM
- T1/2 [8]: 21 min
- Kd [9]: 37.5 nM
- T1/2 [9]: 1 min
- Kd [10]: 19 nM
- T1/2 [10]: 1 min
- Kd (hPCSK9(D374Y)-mmh): 4.2 nM
- T1/2 (hPCSK9(D374Y)-mmh): 4 min

Source: patent US20130064834A1 (published 2013)
